Reference: the supplement of paper PMC11780869

Test system: Bacillus subtilis
Assay: cleaved RNA product abundance (RNA/gDNA barcode ratio) relative to median wild-type variant (ratio to wild type); higher = more accumulation of the downstream cleavage product
Conditions: cleavage site: cggR-gapA (positions -7 to +36 mutated)
In short: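 Oligos with a 9% error rate were used to build barcoded, mutagenized RNase Y cleavage-site windows within truncated aprE or tetM reporter mRNAs, which were integrated into the B. subtilis chromosome. Cultures were grown in LB at 37°C between OD600 0.0003 and 0.3. Cleaved RNA was gel-selected, reverse transcribed and barcode-sequenced, as were genomic DNA barcodes, and UMIs were collapsed. Cleaved product abundance is the scaled RNA:gDNA barcode ratio, with the median construct carrying the unmutated site as reference.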

[1] = experiment (reporter, strain, medium): exp 4a: truncated aprE reporter, strain BJT201 with 2% xylose (RNase J1 expressed)
[2] = experiment (reporter, strain, medium): exp 2b: truncated aprE reporter, strain BJT200
[3] = experiment (reporter, strain, medium): exp 6: tetM reporter, strain 168

Row | Sequence | cleaved RNA product abundance [1] | cleaved RNA product abundance [2] | cleaved RNA product abundance [3]
1 | ACAGACGAAGGAGCCGCAAAGAAGTTATTAAGGGGTCAATAATCCCTCAATATAAATATCTCTCACTTATTTAAA | 0.611 | – | –
2 | ACAGACGAAGGAGCCGCAAAGAAGTTATTAAGGGGTGAAAAATCCCTCAATATAAATATCTCTCACTTATTTAAA | 0.504 | – | –
3 | ACAGACGAAGGAGCCGCAAAGAAGTTATTAAGGGGTGAATAATCCCTAAATATAAATATCTCTCACTTATTTAAA | 0.554 | – | –
4 | ACAGACGAAGGAGCCGCAAAGAAGTTATTAAGGGGTGAATAATCCCTCAATATAAATACCTCTCACTTATTTAAA | 0.623 | – | –
5 | ACAGACGAAGGAGCCGCAAAGAAGTTATTAAGGGGTGAATAATCCCTCAATATAAATATCTCTCACTTATTTAAA | 0.741 | 0.652 | 0.741
6 | ACAGACGAAGGAGCCGCAAAGAAGTTATTAAGGGGTGAATAATCCGTCAATATAAATATCTCTCACTTATTTAAA | 0.0683 | 0.159 | –
7 | ACAGACGAAGGAGCCGCAAAGAAGTTATTAAGGGGTGAATAATCCTTCAATATAAATATCTCTCACTTATTTAAA | 0.266 | – | –
8 | ACAGACGAAGGAGCCGCAAAGAAGTTATTAAGGGGTGAATAATTCCTCAATATAAATATCTCTCACTTATTTAAA | 0.228 | – | –
9 | ACAGACGAAGGAGCCGCAAAGAAGTTATTAAGGGGTGAATACTCCCTCAATATAAATATCTCTCACTTATTTAAA | 0.256 | – | –
10 | ACAGACGAAGGAGCCGCAAAGAAGTTATTAAGGGTAGAATAATCCCTCAATATAAATATCTCTCACTTATTTAAA | 0.293 | 0.172 | –
11 | ACAGACGAAGGAGCCGCAAAGAAGTTATTAAGGGTCGAATAATCCCTCAATATAAATATCTCTCACTTATTTAAA | 0.211 | – | –
12 | ACAGACGAAGGAGCCGCAAAGAAGTTATTAAGGGTTAAATAATCCCTCAATATAAATATCTCTCACTTATTTAAA | 0.753 | – | –
13 | ACAGACGAAGGAGCCGCAAAGAAGTTATTAAGGGTTGAAAAATCCCTCAATATAAATATCTCTCACTTATTTAAA | 0.565 | – | –
14 | ACAGACGAAGGAGCCGCAAAGAAGTTATTAAGGGTTGAACAATCCCTCAATATAAATATCTCTCACTTATTTAAA | – | 0.387 | –
15 | ACAGACGAAGGAGCCGCAAAGAAGTTATTAAGGGTTGAATAAACCCTCAATATAAATATCTCTCACTTATTTAAA | 0.406 | 1.07 | –
16 | ACAGACGAAGGAGCCGCAAAGAAGTTATTAAGGGTTGAATAAGCCCTCAATATAAATATCTCTCACTTATTTAAA | 0.608 | – | –
17 | ACAGACGAAGGAGCCGCAAAGAAGTTATTAAGGGTTGAATAATACCTCAATATAAATATCTCTCACTTATTTAAA | 0.234 | 0.146 | –
18 | ACAGACGAAGGAGCCGCAAAGAAGTTATTAAGGGTTGAATAATCACTCAATATAAATATCTCTCACTTATTTAAA | 0.127 | 0.098 | –
19 | ACAGACGAAGGAGCCGCAAAGAAGTTATTAAGGGTTGAATAATCCATCAATATAAATATCTCTCACTTATTTAAA | 0.205 | – | –
20 | ACAGACGAAGGAGCCGCAAAGAAGTTATTAAGGGTTGAATAATCCCACAATATAAATATCTCTCACTTATTTAAA | 0.0861 | – | –
21 | ACAGACGAAGGAGCCGCAAAGAAGTTATTAAGGGTTGAATAATCCCTCAAAATAAATATCTCTCACTTATTTAAA | 0.222 | – | –
22 | ACAGACGAAGGAGCCGCAAAGAAGTTATTAAGGGTTGAATAATCCCTCAACATAAATATCTCTCACTTATTTAAA | 0.237 | – | –
23 | ACAGACGAAGGAGCCGCAAAGAAGTTATTAAGGGTTGAATAATCCCTCAATATAAATATCTCTCACTTATTTAAA | 0.483 | 0.396 | 0.439

Row | Sequence | cleaved RNA product abundance [1] | cleaved RNA product abundance [2] | cleaved RNA product abundance [3]
24 | ACAGACGAAGGAGCCGCAAAGAAGTTATTAAGGGTTGAATAATCCCTCAATATAAATATTTCTCACTTATTTAAA | 0.512 | – | –
25 | ACAGACGAAGGAGCCGCAAAGAAGTTATTAAGGGTTGAATAATCCCTCAATATAAATCTCTCTCACTTATTTAAA | 0.173 | – | –
26 | ACAGACGAAGGAGCCGCAAAGAAGTTATTAAGGGTTGAATAATCCCTCAATATAAATTTCTCTCACTTATTTAAA | 0.436 | – | –
27 | ACAGACGAAGGAGCCGCAAAGAAGTTATTAAGGGTTGAATAATCCCTCAATATACATATCTCTCACTTATTTAAA | 0.404 | – | –
28 | ACAGACGAAGGAGCCGCAAAGAAGTTATTAAGGGTTGAATAATCCCTCAATATATATATCTCTCACTTATTTAAA | 0.371 | – | –
29 | ACAGACGAAGGAGCCGCAAAGAAGTTATTAAGGGTTGAATAATCCCTCAATTTAAATATCTCTCACTTATTTAAA | 0.132 | – | –
30 | ACAGACGAAGGAGCCGCAAAGAAGTTATTAAGGGTTGAATAATCCCTCCATATAAATATCTCTCACTTATTTAAA | 0.0987 | – | –
31 | ACAGACGAAGGAGCCGCAAAGAAGTTATTAAGGGTTGAATAATCCCTCTATATAAATATCTCTCACTTATTTAAA | 0.151 | 0.157 | –
32 | ACAGACGAAGGAGCCGCAAAGAAGTTATTAAGGGTTGAATAATCCCTGAATATAAATATCTCTCACTTATTTAAA | 0.299 | – | –
33 | ACAGACGAAGGAGCCGCAAAGAAGTTATTAAGGGTTGAATAATCCCTTAATATAAATATCTCTCACTTATTTAAA | 0.608 | – | –
34 | ACAGACGAAGGAGCCGCAAAGAAGTTATTAAGGGTTGAATAATCCGTCAATATAAATATCTCTCACTTATTTAAA | 0.187 | – | –
35 | ACAGACGAAGGAGCCGCAAAGAAGTTATTAAGGGTTGAATAATCCTTCAATATAAATATCTCTCACTTATTTAAA | 0.358 | – | –
36 | ACAGACGAAGGAGCCGCAAAGAAGTTATTAAGGGTTGAATAATCTCTCAATATAAATATCTCTCACTTATTTAAA | 0.244 | – | –
37 | ACAGACGAAGGAGCCGCAAAGAAGTTATTAAGGGTTGAATAATTCCTCAATATAAATATCTCTCACTTATTTAAA | 0.1 | – | –
38 | ACAGACGAAGGAGCCGCAAAGAAGTTATTAAGGGTTGAATCATCCCTCAATATAAATATCTCTCACTTATTTAAA | – | 0.5 | –
39 | ACAGACGAAGGAGCCGCAAAGAAGTTATTAAGGGTTGAATGATCCCTCAATATAAATATCTCTCACTTATTTAAA | – | 0.298 | –
40 | ACAGACGAAGGAGCCGCAAAGAAGTTATTAAGGGTTGAGTAATCCCTCAATATAAATATCTCTCACTTATTTAAA | 0.375 | – | –
41 | ACAGACGAAGGAGCCGCAAAGAAGTTATTAAGGGTTGATTAATCCCTCAATATAAATATCTCTCACTTATTTAAA | 0.409 | 0.287 | –
42 | ACAGACGAAGGAGCCGCAAAGAAGTTATTAAGGGTTGTATAATCCCTCAATATAAATATCTCTCACTTATTTAAA | 0.309 | – | –
43 | ACAGACGAAGGAGCCGCAAAGAAGTTATTAAGGGTTTAATAATCCCTCAATATAAATATCTCTCACTTATTTAAA | 0.667 | 0.63 | –
44 | ACAGACGAAGGAGCCGCAAAGAAGTTATTAAGGTAAGAATAATCCCTCAATATAAATATCTCTCACTTATTTAAA | 0.0843 | – | –
45 | ACAGACGAAGGAGCCGCAAAGAAGTTATTAAGGTACGAATAATCCCTCAATATAAATATCTCTCACTTATTTAAA | 0.106 | 0.0971 | –
46 | ACAGACGAAGGAGCCGCAAAGAAGTTATTAAGGTAGGAATAATCCCTCAATATAAATATCTCTCACTTATTTAAA | 0.159 | 0.145 | –
